{"source": "patent US20030176665A1", "key": {"[1]": {"tested_on": "gp41 (535-681)-His6"}, "[2]": {"target": "gp41 (535-681)-His6", "remark": "listed apart in the source"}}, "note": "Read-outs that look alike come from different tables or passages of the source.", "data": [{"molecule": "C-terminally truncated SlyD from E. coli", "values": [{"measurement": "aggregation of gp41 after shift to neutral pH (UV spectra)", "setting": "[1]", "value": "Comparable data have been obtained with ... a C-terminally truncated SlyD from E. coli"}]}, {"molecule": "FkpA from E. coli (mature FkpA) (protein) AEAAKPATAADSKAAFKNDDQKSAYALGASLGRYMENSLKEQEKLGIKLDKDQLIAGVQDAFADKSKLSDQEIEQTLQAFEARVKSSAQAKMEKDAADNEAKGKEYREKFAKEKGVKTSSTGLVYQVVEAGKGEAPKDSDTVVVNYKGTLIDGKEFDNSYTRGEPLSFRLDGVIPGWTEGLKNIKKGGKIKLVIPPELAYGKAGVPGIPPNSTLVFDVELLDVKPAPKADAKPEADAKAADSAKK", "values": [{"measurement": "aggregation of gp41 after shift from about pH 3.5 to pH 7.4 (UV spectra after 1 and 10 minutes; 1 µM gp41 with 2 µM or 4 µM FkpA)", "setting": "[2]", "value": "FkpA substantially reduces the aggregation of gp41 in a dose-dependent fashion"}, {"measurement": "suppression of aggregation (stray light in UV spectra) by a two-fold and a four-fold molar excess of the chaperone", "setting": "[2]", "value": "there is compelling spectroscopic evidence that FkpA efficiently solubilizes the gp41 ectodomain in a dose-dependent fashion"}]}, {"molecule": "trigger factor from Thermatoga maritima (protein) MEVKELERDKNRVVLEYVFGAEEIAQAEDKAVRYLNQRVEIPGFRKGRIPKNVLKMKLGEEFQEYTLDFLMDLIPDTLKDRKLILSPIVTERELKDVTARVVVEVHEEPEVRIGDISKIEVEKVDEEKVLEKYVERRIEDLRESHALLEPKEGPAEAGDLVRVNMEVYNEEGKKLTSREYEYVISEDEDRPFVKDLVGKKKGDVVEIEREYEGKKYTYKLEVEEVYKRTLPEIGDELAKSVNNEFETLEQLKESLKKEGKEIYDVEMKESMREQLLEKLPEIVEIEISDRTLEILVNEAINRLKREGRYEQIVSSYESEEKFREELKERILDDIKRDRVIEVLAQEKGISVNDEELEKEAEELAPFWGISPDRAKSLVKARQDLREELRWAILKRKVLDLLLQEVKVKVVEPKGEGDDSEGKEDN", "values": [{"measurement": "aggregation of gp41 after shift to neutral pH (UV spectra)", "setting": "[2]", "value": "Comparable data have been obtained with trigger factor from Thermatoga maritima"}]}]}
